Assay results as given in a protein production outcome set (Wang et al. 2014).

Test: label from the status in PepcDB records
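Also: failed if final PepcDB status was selected cloned or expressed and not failed if soluble or beyond.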

Sequence	protein production
MTIIDDGKLKKAITAASLGNAMEWFDFGVYGFVAYALGKVFFPDANPSVQMIAALGTFSVPFLIRPLGGLFFGMLGDKYGRQKILAITIVIMSISTFCIGLIPSYATIGIWAPILLLLCKMAQGFSVGGEYTGASIFVAEYSPDRKRGFMGSWLDFGSIAGFVMGAGVVVLISSVVGEQNFLDWGWRIPFFLALPLGIIGLYLRHALEETPAFQQHVDTMEQGDREGLQDGPKVSFKEIATKHWRSLLTCIGLVISTNVTYYMLLTYMPSYLSHNLHYSEDHGVLIIIAIMVGMLFVQPVIGMLSDRFGRRPFILIGSVALFALSIPAFIMINSNVTGLIFAGLLLLAVVLNCFIGVMASSLPAMFPTHIRFSALASAFNISVLIAGLTPTLAAWLVETTQNLMMPAYYLMVIAVVGMATGLSMKETANRPLKGATPAASDIQEAKEILGEHYDNIEQKIEDIDQEIADLQAKRSRLVQQHPRIND	failed
MTINWIQAAILGLFACLCSNSCMAGQAVGNYTIGRPLVGGLVCGIILGDLKLGIACGVAMQLVYIALVTPGGTVSADVRAISYIGIPLAMVAISTKGLDPLGGSAADLAKSVGTLVGTIGTVLFYSVAALNLVWQSFGWKDIKKGKLDHLYAINFGWPWISHLLFSFLPTVILTYFGATAVTAMRDALPMDGLAMKTLFTVGGMLPCVGIAILLRQIVNKNIDFVPFFVGFTLAASLKLNLVSITIIALLFAVIFYKIALIKNNTKLVDSTGSLTNDDEEEDI	failed
MTIPTISELKKDRIIPHVFPNDKIDLNVDLFISFKAGKEVNHGNVLDIAGTGSVPRNIKFSEEPPDGYCFVLFMVDPDYPSRLRPDGKEYIHWVVSGIKTKELIKGTQKNCVTILPYVGPSIKKGTGLHRISFIISLIKEEDKDNITGLPHYKGEKYITRVKFNNYESVHNIAQINNMKIVGYNWCQIEG	failed
MTIQLTVPTIACEACAEAVTKAVQNEDAQATVQVDLTSKKVTITSALGEEQLRTAIASAGHEVE	not failed
MTISNGDVKSETCNNGSSEKKPFRIFVGYDPREDLAYQVCHHSITKRSSIPVEITPIIQSDLRKKGLYWRERGQLESTEFSFSRFLTPHLSDYQGWAMFVDCDFLYLADIKELTDLIDDKYAIMCVQHDYTPKETTKMDGAVQTVYPRKNWSSMVLYNCGHPKNKTLSPEIVNTQTGAFLHRFQWLEDEEIGSIPFVWNFLEGHNRVVEKDPTTQPKAVHYTRGGPWFDAWKDCEFADLWLNEMEEYNKENKKEADNAK	failed
MTISRTQQIQQLEQEWTSPRWKNITRPYSAEDVIKLRGSVNPECTFAQNGAKKLWELLHGGSRKGYINCLGALTGGQALQQAKAGVEAIYMSGWQVAADANTASSMYPDQSLYPVDSVPAVVKRINNSFRRADQIQWSNNIEPGSKGYTDYFLPIVADAEAGFGGVLNAFELMKAMIEAGAAGVHFEDQLAAVKKCGHMGGKVLVPTQEAIQKLVAARLAADVLGVPTLLIARTDADAADLLTSDCDPYDREFITGDRTAEGFFRTRAGIEQAISRGLAYAPYADLVWCETSTPDLALAKRFADAVHAQFPGKLLAYNCSPSFNWKKNLTDQQIASFQDELSAMGYKYQFITLAGIHSMWFNMFDLAHAYAQGEGMKHYVEKVQQPEFASVDRGYTFASHQQEVGTGYFDKVTNIIQGGASSVTALTGSTEEQQF	not failed
MTISYPAKEFLQTIFKTPYLKNLYLSPTMSIYDTLIGSPATTLKRYLLKSDVAVMYTSPSTYVENEDSSFRFNQNCSPMPPWVLGTKSKTIINTLPPKKSHKRTNTDIIGIHSMTSQNSSGSSYFQLLDLLADLGELIYDDEAMKGFYYEFMNLDNKNAFNNDENLNNLMITFTNLGGASNANESGLKIGATTSGVKTKVDEDIEPLCRHYKCATMDSSFIHWITHWNLLDQVFSSNFVGEGEYYTDPNEVKRILENRDLDTRSKQGKSLYIVDLEGSVRIHVMVNTSLYGMIVLLEVRHITLAKKKNDVDDEREQENEDSS	failed
MTITNSKAEAWELIGNQFWTIGRVAARPSDRENDIFLENIVPGSTVAVIGASTRFLIEKALERGASVTVFDFSQRMCDDLAEALADRCVTIDLLDITAEIPKELAGHFDFVLNDRLINRFTTEEARRACLGMLSLVGSGTVRASVKLGFYDIDLKLIEYGEQSGTLAKFFDPSDKTFHFREAGDVLDRALVPHGLIDKPTLLEWYRRRGKETRFDDEDVRAL	failed
MTIVLIAFALYLLATALLTWAVLRDGNQSPARWLAPALAAVALHAGYHVLVAVRTAGGPDMHFFAALSLCGLGMAALTAVFGGRGRMAAVGVVVFPLSAILLASYHAYGHEPSSDLGWRLELHAWLALLAYATLGIAALLAIMLWLQERALRRRDFHSWLRALPPLTELETLLFRTITVGFVLLSLTLLTGLLFVQDFLAQRLLQKTVLSILSWIVFGALLIGRWRNGWRGTKAVHWTLTAMALLVLSFFGSKFVIELVLGPR	failed
MTIWLLQLVLVIALCNLCGRLAERLGQCAVVGEIAAGLLLGPSLFGVIAPSFYDLLFGPRTLSAMAQVGEVGLILLMFQIGLHMELSETLRGKRWRIPVAIAAGGLIAPAAIGMIVAIVSKDTLASDVPALPYILFCGVALAVSAVPVMARIIDDLALGAMVGARHAMSAAMLTDALGWMLLATIASLSSGPGWAFAHMLVSLLVYLVLCALLVRFVVRPVLARLASTAHATRDRLAVLLCFVIASALATSLIGFHSAFGALAAALFVRRVPGVAKEWRDNVEGFVKLVLMPVFFACAGLHASVGTIDDAASWMWCGVFLVGGFIGKFGGSYLGARGTGLAPHDAMLASSLMNTRGLMELIVLSIGLQMQILPPKVYTILVVFALVTTALTAPLVRFTLRMQTRAMSQQAA	failed
MTIYAAGLPAFLSYFSIGLVCFAIFSTIYTRLTPHEEVELIKAGNISAVVAFLGALIGFSLPLASAAAHSVSLPDYVIWAAIGLLVQVLAFYIAKLTMTDLHLKITEGNVAAGLWSGGIAVVIGTLNAACMAY	failed
MTIYNQAIESYDEKMAKDVIMLAGRILLESGAEGSRVEDTMTRIAITLGHKESNSFVTNTVINFMLHDESYPRMYRIRTRDTNLHRISRTNGISRRLALGDISLEDAFQELQKIYQEQSIKNHYLFYKFIAAAVISVSFLYLQGGHLTDVLTALLAGSFGYIVVEILQQKLHAQFIPEFMGALVIGLVTIIGHNLIPGGSISTIIIAAVMPIVPGVLITNAIQDLFGGHMLMFTTKSLEALVTAFGIGAGVSTVLIIF	failed
MTKFNWHESAEKKWDSSAEFWNQNSQEMWDSGSRSTIIPFFEQYVKKEAQVLDVGCGDGYGTYKLSRAGYKAVGVDISEVMIQKGKERGEGPDLSFIKGDLSSLPFENEQFEAIMAINSLEWTEEPLRALNEIKRVLKSDGYACIAILGPTAKPRENSYPRLYGKDVVCNTMMPWEFEQLVKEQGFKVVDGIGVYKRGVNEKMLGQLSTELQQSLTFLWVFMLKKHKEMKEFLGGK	failed
MTKIACVIVTYNRKQLLEEALNSVLIQTESPEYVFVIDNASTDGTEKYINDKFNFDNRQWHYVRCSQNLGGSAGFAQGMRLALQTDCSWISISDDDAIFEPGYFAALRKGIKQYPEQSVFSGSVLLPDGKHDMMHREVITNSATLTVRCVTDETYKHDFSYDIFSFVGILLSRQVIEAIGLPEQDYFIRFDDFEYAVRALKFGRFMNLSALEHHHHHH	failed
MTKKQKEILFCDYFEEWVEVYKVGAIAKITLAKYYNAAKQLRDLCPKLFISDFDRREYQRIINVYAETHEKQTVKDFHHHVKACIKDLFHDGLIDKDPTYRVVIKGAEPTRAKKRKFLQKEELSKLLQSLDMSQIGFGWFVMLVAKTGMRYAEALAITPADFDWTAQTISINKTWDYKYNKGFAKTKTLSSVRTIKIDWQIVGQFKPLIKDFPEDEPIFVEKFGDGTYKRQFNSTINNFLAVKCNETGITQISFHALRHTHASVLLAEGVSIHTISARLGHADVGVTQETYAHVLDELQKKDDQKMLSVLMQIA	failed
MTKLEQIQQWTAQHHASMTYLSNPKTIEYLTGFGSDPIERVLALVVFPDQDPFIFAPALEVEVIKETGWQFPVIGYLDHENPWAMIADQVKQRHVNPEHVAIEKGQLQVARMEALAAQFSAPSFDLDITSFIEHMR	not failed
MTKLINFLAEYQREIESQPIELDLALFSRLVGLPFEAVLTQPSAPLVEACMKLIEFVDNENYLILPADRQMLEQIAFSNRYQSVQICDVVQGPHRFLAATFVLSKTTKVIAFRGPNGTLLSWKADLHFSFSSINKLKIQAHQYLLQALQHDNQNIYCVGFSQGASIAALACMDISDTHRHRIQTIIFDSPGLPDDHYQSPIPIIELVPPLSLFALVGEHPFHQITISSSSTGIWQHDLYSWEADSHGEFAKNIGITNPTTIQHQFIQLLPSNITDENIDRTLNVAISIFSQLNFHSTSELIKHWNQFNALIQTEITAENIVVKTAILRLQKLIFKNAALNLQSIPLN	failed
MTKMNRETVITEALDLLDEVGLDGVSTRRLAKRLGVEQPSLYWYFRTKRDLLTAMAQAAMAPHAAEPLPEPGEDWHGWFLRNTRSFRRTLLARRDGARLHAGSRPTADLDRVRRKMDFLVASGVPERHAQMAMLAAGRFTVGCVLEEQAETGAGDTADLPADVPEIDHESAFEAGLALITDGLVRHVDAR	not failed
MTKNNILNNKITKVILFRICFIIAITTALVCGLKLNIINDGFWHIKVGEYIIKNRVIPREDIFSWYGIENKLKWISHEWLFGVIAYLVYKIKGFTSVIIFSTIVNCSTALLVYKFALIRNKNKVVSLIIMWVYIFGDFYDITYRPVLISKLILLCSFILLEKKKYLFALIVLILGVNIHGGIYPLYLMIFAYYTIPFSYKYLIFSLITVLINPYGYNLYKYTYLSMKNIDINRYINEWCITPIYDYKVALIIICITVCICTVSKIKFKDFLFCGALIILAISAKRHVDVIYLFVLPVISLYFNSFYFDFFMKFVSRIKPEKLKSIIPKLNYITCGFLIVVMIVKSSLCIKQYFFDTHFHNFEYITNDSENPIKACNFINSHQEIKNSRTFNDYNSSPYIIFRGIKTFVDSRQDLFTYNFNKTNAFVDQIKALNNYDYMIYVFKKYNIKYAILRNDMPNTRLLRNTDLIYIIYEDRDYSIFQINRNKLKSSNQRGV	failed
MTKPILKKKERVDQLFSTDVKIIQNKEVFSYSIDSVLLSRFPKIPSRGLIVDLCSGNGAVGLFAATRTKAKIIEVELQERLADMAQRSIQLNDLTNQVSMIRDDLKNLLDHVPRSKVDLILCNPPYFKAAETSKKNLSEHYLLARHEIATNLEEICKISQQVLKTNGRLAMVHRPDRFLEIIDTFKKYKLAPKRLQFVYPKLGKDANMLLIETIKDGSPNGMKILPPLIVHKDNGDYTDNIHEIYFGKGHQAYMYVLKCADDSLYTGYTTDIKKRLATHNAGKGAKYTRARLPVELIYVEQFNHKNAAMSAEGKLKQKTRAQKLHYIEEHQHINLVSQF	failed
MTKQPDLLKVDWSAIPAPDDDGAAAHLPGARIQPVALPATDGSSVTLSSLPGRTVLFIYPRTGVPGQISLVDDWDMIPGARGCTPQTCSFRDLFTDLKTAGADAVFGLSTQSSAYQSEMATRLHLPFPVLSDESLELTRALNMPTMQVAGMTLLKRMALIIDDGRISHVFYPVFPPDRNAGDVLEWLKANPR	failed
MTKQQKGFVTGQPTGALNLSDILDSEELGEYHLMSAAIITGNTVDFSGLGAGPDDPFEIASITKIFTGELLRLQIERGEITESTAVGDVLGERVADSLIRDITVEELANHTSGLPRLGNVGLRPFMATFFDKNPYKDLSADRVISISTTSKLNSRGEFHYSNLGFALLGQVLARNAGLTFDQLLDRDLLAPLNLNNTKLMTPESLAQDAPQGFSTPGKQVEAWEMDGFLPAAGLRSTARDMAVFCQYLFTKGPAPFTWQSLESAPEIVWHNGESFGYSSVLFFNTATTTAIFVAADVATSVFPIGHELLMANSTRQESKLEHHHHHH	failed
